# How the values were obtained:
# [1] = target: T1, ecto-CRT on CT-26 cells (Mus musculus, UniProt P14211); assay: Flow cytometry binding to anticancer-agent-treated CT-26 cells; format: cell-based; settings: for binding to cells: 100 nM protein; for binding after pretreatment with anti-CRT antibodies: CT-26 cells treated with DOX or MTX
# T1 sequence (P14211 18-416): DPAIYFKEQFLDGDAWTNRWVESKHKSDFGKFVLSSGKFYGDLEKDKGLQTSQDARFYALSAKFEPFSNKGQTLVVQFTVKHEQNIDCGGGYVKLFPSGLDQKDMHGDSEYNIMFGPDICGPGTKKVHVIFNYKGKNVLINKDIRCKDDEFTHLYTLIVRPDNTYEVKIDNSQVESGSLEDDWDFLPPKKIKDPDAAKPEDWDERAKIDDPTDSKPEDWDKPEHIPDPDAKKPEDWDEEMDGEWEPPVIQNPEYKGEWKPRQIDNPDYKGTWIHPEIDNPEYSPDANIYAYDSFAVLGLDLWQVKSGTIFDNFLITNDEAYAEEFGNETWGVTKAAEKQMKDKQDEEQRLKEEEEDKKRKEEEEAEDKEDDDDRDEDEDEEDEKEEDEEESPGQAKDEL
# Method: (§1) Cells were cultured at 37° C. in DMEM medium supplemented with 10% FBS and 100 U of streptomycin/penicillin in an atmosphere of 5% CO2. Cells were treated with each anticancer drug [3 μM methotrexate (MTX), 25 μM […] (DOX), or 15 μM gemcitabine (GEM)] to induce apoptosis (Y. Zhang, et al., Cancers, 13 (11), 2801, 2021). After 4 h of incubation, the cells were scraped and detached from the plate. The cells (10^5) were fixed with 1% PFA for 15 min and then treated with 100 nM of PASylated recombinant proteins for 1 h on ice. After washing five times with cold PBS buffer containing 0.1% Tween-20 (T-PBS), the cells were incubated with anti-His tagged monobodies (diluted to 1:1000) for 1 h and then treated with Alexa Fluor 488-conjugated secondary antibodies (5 μg/mL) for 1 h. Fluorescence signals were detected by FACSCanto II Flow Cytometer (BD Biosciences, USA). For blocking experiments, cells were first incubated with anticancer agents for 4 h and fixed with 1% PFA. Cells were then incubated with anti-CRT antibodies (diluted to1: 400) for 1 h to mask ecto-CRT. Cells were stained with PASylated recombinant proteins and followed the same procedure as described above.
# [2] = target: T2, ecto-CRT on MC-38 cells (Mus musculus, UniProt P14211); assay: Flow cytometry binding to anticancer-agent-treated MC-38 cells; format: cell-based; design: endogenous in cells; host or cells: MC-38 mouse colon cancer cells (in culture); settings: for binding to cells: 100 nM protein; for binding after pretreatment with anti-CRT antibodies: MC-38 cells treated with DOX or MTX
# T2 sequence (P14211 18-416): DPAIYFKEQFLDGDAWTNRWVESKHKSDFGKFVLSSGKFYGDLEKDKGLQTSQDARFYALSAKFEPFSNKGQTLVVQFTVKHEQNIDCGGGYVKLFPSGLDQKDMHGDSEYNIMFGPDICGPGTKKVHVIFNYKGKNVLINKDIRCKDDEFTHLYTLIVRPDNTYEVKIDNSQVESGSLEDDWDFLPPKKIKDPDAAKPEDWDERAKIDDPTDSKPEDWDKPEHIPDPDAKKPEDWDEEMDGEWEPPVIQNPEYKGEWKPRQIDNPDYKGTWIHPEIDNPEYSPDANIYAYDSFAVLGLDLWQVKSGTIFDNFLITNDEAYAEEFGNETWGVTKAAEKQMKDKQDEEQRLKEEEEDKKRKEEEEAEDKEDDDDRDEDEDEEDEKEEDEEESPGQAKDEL
# Method: as §1
# [3] = target: T2, ecto-CRT on MC-38 cells; assay: Confocal immunofluorescence staining of MC-38 cells; format: cell-based; design: endogenous in cells; host or cells: CT-26 and MC-38 mouse colon cancer cells (in culture, or CT-26 tumors in mice)
# Method: PASylated CRT-targeted L-ASNases bound to ecto-CRT on cells were visualized by confocal immunofluorescence microscopy with reference to the prior art (Y. Zhang, et al., Cancers, 13(11), 2801, 2021). After overnight incubation in a cover-glass, CT-26 and MC-38 cells (104) were treated with anticancer agents for 4 h at 37° C. The cells were then fixed with 1% PFA for 15 min, stained with 100 nM PASylated recombinant proteins for 1 h on ice, and treated with anti-His tagged monobodies (diluted to 1:1000) and Alexa Fluor 488-conjugated secondary antibody for 1 h (5 μg/mL). Cell membranes were stained with Alexa Fluor 555-conjugated wheat germ agglutinin (WGA) (diluted to 1:5000). Between each step, samples were washed with cold T-PBS. Finally, the cells were incubated with 4′,6-diamidino-2-phenylindole (DAPI) (Thermo Fisher Scientific, USA) to stain the nuclei. Immunofluorescence signals were imaged using an LSM510 confocal microscope (ZEISS, Jena, Germany) and data were analyzed with ZEN-LSM imaging software (ZEISS, Jena, Germany).
# [4] = In vivo pharmacokinetic analysis; design: species or system BALB/c mice; settings: 10 IU intravenous, mouse serum
# Method: Six-week-old female BALB/c mice (Orient Company, Korea) were randomly assigned to different treatment groups (n=3) and intravenously injected with 10 IU of PASylated recombinant protein. Then, blood samples were taken from the eyes at the specified time (0-52 h) and left at 4° C. for 40 min. After centrifugation at 12,000 rpm for 20 min, the serum fraction was obtained and stored at −80° C. before further analysis. PASylated recombinant protein in serum was assessed using the ELISA method described above. The amount of serum recombinant protein was converted to enzyme activity.
# [5] = test system: MC-38 tumor; assay: In vivo anti-cancer efficacy in MC-38 tumor-bearing mice; design: species or system C57BL/6 mice; settings: summary statement
# Method: CT-26 and MC-38 tumor cells (106 in 100 μL PBS) were implanted subcutaneously into the right flanks of 6-week-old BALB/c and C57BL/6 female mice (Orient company, Korea), respectively. When the tumors reached about 100 mm^3, the tumor-bearing mice were injected intraperitoneally with anticancer agents (15 mg/kg GEM, 10 mg/kg DOX or 2 mg/kg MTX) three times every 2 days. Simultaneously, the mice were injected intravenously with the PASylated recombinant proteins of the present invention five times every 2 days. The length (L), width (W), and height (H) of each tumor were recorded every 3 days using a digital caliper, and the tumor volume (mm3) was calculated using the following formula (L×H×W)/2. Mice were euthanized when tumors were ˜1,500 mm^3 and all animal experiments were performed in accordance with the general principles and procedures outlined in the National Institutes of Health Guidelines, and all protocols were approved by the Chonnam National University Animal Care and Use Committee (permit number: HCRL 16-001).
# [6] = CT-26 cells treated with DOX and MTX
# [7] = CT-26 cells with GEM or PBS treatment
# [8] = MC-38 cells treated with DOX and MTX
# [9] = MC-38 cells with GEM or PBS treatment
# [10] = MC-38 cells treated with DOX or MTX
Molecule,"binding to cells [1, 6]",binding after pretreatment with anti-CRT antibodies [1],"binding to cells [1, 7]","binding to cells [2, 8]",binding after pretreatment with anti-CRT antibodies [2],"binding to cells [2, 9]","immunofluorescence staining, binding to cells [3, 10]","immunofluorescence staining, binding to cells ([3]; MC-38 cells treated with GEM)",half-life [4] [h],tumor growth in mice treated with ICD-inducing drugs [5]
CRT3LP: PASylated L-ASNase fused with CRT-targeting CRT3 monobody at N-terminus and PAS200 tag plus His6 tag at C-terminus (protein) MASVSDVPRDLEVVAATPTSLLISWKLGFFKRYYRITYGETGGNSPVQEFTVPGSKSTATISGLKPGVDYTITVYAVTGQPMYGQPMYPISINYRTSGGGGSGGGGSEFLPNITILATGGTIAGGGDSATKSNYTAGKVGVENLVNAVPQLKDIANVKGEQVVNIGSQDMNDDVWLTLAKKINTDCDKTDGFVITHGTDTMEETAYFLDLTVKCDKPVVMVGAMRPSTSMSADGPFNLYNAVVTAADKASANRGVLVVMNDTVLDGRDVTKTNTTDVATFKSVNYGPLGYIHNGKIDYQRTPARKHTSDTPFDVSKLNELPKVGIVYNYANASDLPAKALVDAGYDGIVSAGVGNGNLYKTVFDTLATAAKNGTAVVRSSRVPTGATTQDVEVDDAKYGFVASGTLNPQKARVLLQLALTQTKDPQQIQQIFNQYGSSGGGGSGGGGSASPAAPAPASPAAPAPSAPAASPAAPAPASPAAPAPSAPAASPAAPAPASPAAPAPSAPAASPAAPAPASPAAPAPSAPAASPAAPAPASPAAPAPSAPAASPAAPAPASPAAPAPSAPAASPAAPAPASPAAPAPSAPAASPAAPAPASPAAPAPSAPAASPAAPAPASPAAPAPSAPAASPAAPAPASPAAPAPSAPAAGSHHHHHH,efficiently bound,significantly inhibited,not,efficiently bound,significantly inhibited,not,only bound,not,9.34 ± 0.91,significantly inhibiting tumor growth
CRT4LP: PASylated L-ASNase fused with CRT-targeting CRT4 monobody at N-terminus and PAS200 tag plus His6 tag at C-terminus (protein) MASVSDVPRDLEVVAATPTSLLISWGQPMYGQPMYYYRITYGETGGNSPVQEFTVPGSKSTATISGLKPGVDYTITVYAVTKLGFFKRPISINYRTSGGGGSGGGGSEFLPNITILATGGTIAGGGDSATKSNYTAGKVGVENLVNAVPQLKDIANVKGEQVVNIGSQDMNDDVWLTLAKKINTDCDKTDGFVITHGTDTMEETAYFLDLTVKCDKPVVMVGAMRPSTSMSADGPFNLYNAVVTAADKASANRGVLVVMNDTVLDGRDVTKTNTTDVATFKSVNYGPLGYIHNGKIDYQRTPARKHTSDTPFDVSKLNELPKVGIVYNYANASDLPAKALVDAGYDGIVSAGVGNGNLYKTVFDTLATAAKNGTAVVRSSRVPTGATTQDVEVDDAKYGFVASGTLNPQKARVLLQLALTQTKDPQQIQQIFNQYGSSGGGGSGGGGSASPAAPAPASPAAPAPSAPAASPAAPAPASPAAPAPSAPAASPAAPAPASPAAPAPSAPAASPAAPAPASPAAPAPSAPAASPAAPAPASPAAPAPSAPAASPAAPAPASPAAPAPSAPAASPAAPAPASPAAPAPSAPAASPAAPAPASPAAPAPSAPAASPAAPAPASPAAPAPSAPAASPAAPAPASPAAPAPSAPAAGSHHHHHH,efficiently bound,significantly inhibited,not,efficiently bound,significantly inhibited,not,only bound,not,–,significantly inhibiting tumor growth

# Reference: US20250376507A1, “NOVEL TUMOR ANTIGEN-TARGETING ANTICANCER AGENT” (INDUSTRY FOUNDATION OF CHONNAM NATIONAL UNIVERSITY, priority 2022, published 2025)
